One experiment deals with T1, G9a and GLP (Homo sapiens, UniProt Q96KQ7+Q9H9B1).
T1 sequence (Q96KQ7 2-1210 limits assumed): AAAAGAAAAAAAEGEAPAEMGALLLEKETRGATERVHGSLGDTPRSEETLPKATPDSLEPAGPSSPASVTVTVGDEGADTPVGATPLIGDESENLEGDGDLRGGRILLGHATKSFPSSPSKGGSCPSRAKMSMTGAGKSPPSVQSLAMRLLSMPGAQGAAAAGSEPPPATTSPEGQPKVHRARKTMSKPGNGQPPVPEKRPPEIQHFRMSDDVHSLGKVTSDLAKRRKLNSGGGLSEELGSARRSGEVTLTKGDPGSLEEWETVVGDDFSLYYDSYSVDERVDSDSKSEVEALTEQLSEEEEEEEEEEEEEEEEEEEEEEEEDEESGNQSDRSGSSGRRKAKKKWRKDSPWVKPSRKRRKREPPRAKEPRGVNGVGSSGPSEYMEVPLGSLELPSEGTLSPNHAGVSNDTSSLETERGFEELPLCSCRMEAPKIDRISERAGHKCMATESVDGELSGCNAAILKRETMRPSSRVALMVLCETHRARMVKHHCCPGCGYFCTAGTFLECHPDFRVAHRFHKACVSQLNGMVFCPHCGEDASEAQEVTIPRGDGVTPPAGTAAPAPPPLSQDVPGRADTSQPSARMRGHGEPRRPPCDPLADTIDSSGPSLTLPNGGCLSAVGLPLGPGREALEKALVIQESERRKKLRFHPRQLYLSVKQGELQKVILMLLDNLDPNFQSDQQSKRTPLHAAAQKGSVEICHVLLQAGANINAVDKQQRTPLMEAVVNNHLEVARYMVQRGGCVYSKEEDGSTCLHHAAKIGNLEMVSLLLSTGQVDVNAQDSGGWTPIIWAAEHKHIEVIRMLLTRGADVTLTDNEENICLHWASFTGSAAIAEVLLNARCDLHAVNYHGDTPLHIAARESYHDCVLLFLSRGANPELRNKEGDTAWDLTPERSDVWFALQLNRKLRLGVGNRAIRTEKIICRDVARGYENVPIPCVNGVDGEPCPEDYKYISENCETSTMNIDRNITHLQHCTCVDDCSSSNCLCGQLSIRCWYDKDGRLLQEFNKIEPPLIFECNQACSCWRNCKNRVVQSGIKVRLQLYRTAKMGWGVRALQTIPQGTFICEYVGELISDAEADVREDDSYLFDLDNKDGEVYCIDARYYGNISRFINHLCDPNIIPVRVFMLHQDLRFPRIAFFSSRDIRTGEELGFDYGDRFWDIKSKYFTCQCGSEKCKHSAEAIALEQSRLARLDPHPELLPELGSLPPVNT
T1 sequence (Q9H9B1 2-1298 limits assumed): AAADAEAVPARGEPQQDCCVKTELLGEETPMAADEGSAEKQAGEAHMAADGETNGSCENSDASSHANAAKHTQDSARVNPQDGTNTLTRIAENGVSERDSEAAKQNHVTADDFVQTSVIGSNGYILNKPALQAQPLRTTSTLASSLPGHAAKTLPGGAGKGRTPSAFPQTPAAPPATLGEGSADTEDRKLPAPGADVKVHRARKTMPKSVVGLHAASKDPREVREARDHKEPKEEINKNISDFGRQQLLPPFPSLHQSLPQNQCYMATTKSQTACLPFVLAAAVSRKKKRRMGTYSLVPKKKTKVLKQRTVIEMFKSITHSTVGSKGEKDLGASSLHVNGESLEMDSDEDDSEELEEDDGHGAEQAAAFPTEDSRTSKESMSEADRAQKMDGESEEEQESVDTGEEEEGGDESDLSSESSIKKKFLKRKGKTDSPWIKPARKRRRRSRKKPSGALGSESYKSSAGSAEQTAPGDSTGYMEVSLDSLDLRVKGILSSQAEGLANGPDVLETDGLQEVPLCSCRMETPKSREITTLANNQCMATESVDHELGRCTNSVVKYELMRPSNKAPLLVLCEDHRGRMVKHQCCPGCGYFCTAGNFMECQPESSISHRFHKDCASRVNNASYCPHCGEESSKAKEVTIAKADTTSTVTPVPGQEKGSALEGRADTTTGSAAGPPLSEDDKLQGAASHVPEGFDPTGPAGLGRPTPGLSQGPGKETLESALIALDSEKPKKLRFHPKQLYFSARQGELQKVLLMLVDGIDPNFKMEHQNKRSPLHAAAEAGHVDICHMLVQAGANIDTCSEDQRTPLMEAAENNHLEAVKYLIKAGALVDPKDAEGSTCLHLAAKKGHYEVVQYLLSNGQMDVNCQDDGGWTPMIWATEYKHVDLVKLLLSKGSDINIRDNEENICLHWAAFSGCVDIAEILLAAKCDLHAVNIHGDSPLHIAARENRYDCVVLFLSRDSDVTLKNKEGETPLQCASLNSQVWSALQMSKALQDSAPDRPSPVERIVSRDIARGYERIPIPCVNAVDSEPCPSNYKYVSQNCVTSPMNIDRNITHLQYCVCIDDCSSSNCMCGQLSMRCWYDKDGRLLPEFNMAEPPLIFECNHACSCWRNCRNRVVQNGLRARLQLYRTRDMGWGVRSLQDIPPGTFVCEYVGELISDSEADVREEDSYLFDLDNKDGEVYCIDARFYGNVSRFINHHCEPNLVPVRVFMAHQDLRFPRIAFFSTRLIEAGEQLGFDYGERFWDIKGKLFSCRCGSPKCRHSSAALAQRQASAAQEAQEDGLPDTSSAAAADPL
The experiment in a line: Triple SILAC pull-down after UNC0638 treatment of 293T cells, DMSO/UNC0638 ratio of protein captured by 3×MBT.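 On all read-outs here: mass spectrometry (Q-Exactive) SILAC quantitation, DMSO/UNC0638 ratio computed after subtracting 3×MBTD355N mutant pull-down background, only proteins with at least twofold 3×MBT over mutant signal considered.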 On the set-up: endogenous in cells; host or cells: HEK 293T. It counts as cell-based. The following applies: all values in log base 2; for Relative to UNC0638 UNC Heavy / Relative to UNC0638 UNC Light: SILAC ratio DMSO relative to UNC0638, pull-down with 3xMBT; for Relative to UNC0638 UNC Heavy: UNC0638 in heavy SILAC media; for Relative to UNC0638 UNC Light: UNC0638 in light SILAC media; for Relative to UNC0638 Average: average of UNC Light and UNC Heavy experiments.

The test system of another experiment is 3×MBT domain of L3MBTL1. Kind of experiment: Triple SILAC pull-down, 3xMBT/3xMBTD355N ratio (cytoplasmic, nuclear and chromatin fractions of 293T cells).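 On all read-outs here: proteins quantified with MaxQuant, requiring at least two unique peptides and quantification in both label directions, normalized to the mean of proteins from a digested loading control.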 The following applies: SILAC ratio 3xMBT vs 3xMBTD355N pull-down, 293T cells, all values in log base 2; for 3xMBT/D355N UNC Heavy: experiment with UNC0638 in heavy SILAC media; for 3xMBT/D355N UNC Light: experiment with UNC0638 in light SILAC media. It counts as binding, human.

The source of these data is patent US20140274782A1, “AFFINITY REAGENTS AND METHODS FOR DETECTION, PURIFICATION, AND PROTEOMIC ANALYSIS OF METHYLATED PROTEINS” (The Board of Trustees of the Leland Stanford Junior …, priority 2013, published 2014).

Procedure for 3×MBT domain of L3MBTL1: For stable isotope labeling by amino acids in cell culture (SILAC) experiments HEK 293T cells were grown for at least six doublings in DMEM for SILAC supplemented with 10% dialyzed fetal bovine serum (FBS), 230 mg/L L-proline and either 100 mg/L each of L-lysine and L-arginine (“light” medium), D4-L-lysine and ^13C6-L-arginine (“medium” media), or ^13C6^15N2-L-lysine and ^13C6^15N4-L-arginine (Thermo Scientific). Heavy methyl labeling used DMEM without L-Methionine or L-Cysteine supplemented with D3^13C-L-Methionine (Sigma), L-Cysteine (Sigma) and 10% dialyzed FBS.
For UNC0638 treatments cells were treated for 24 hours with UNC0638 at 2.5 μM or DMSO vehicle control. One experiment treated cells in light media with UNC0638, the other treated cells in heavy media. Both experiments included cells in medium media treated with DMSO for negative control pull-down with 3×MBTD355N.
UNC0638 treatment experiments used a Q-Exactive mass spectrometer (ThermoFisher Scientific). A 25 cm HPLC column with 3 μm Reliasil (Orochem) was used to separate peptides over a 4 hour gradient from 0 to 75% acetonitrile. Ions were generated using a custom nanospray source flowing at 250 nL/minute. Mass spectrometry settings were 70,000 MS1 resolution, data dependent selection of up to 20 precursor ions per cycle, dynamic exclusion of 30 seconds and isolation window of 2 m/z. The nuclear fraction from the experiment using UNC0638 on cells in heavy media was additionally analyzed by 2D HPLC-MS/MS as described earlier.
Peptides were identified and quantified using MaxQuant version 1.2.2.5 (Cox and Mann, supra) with the following changes to default settings: mono- and di-methylation of lysine, and oxidation of methionine, and N-terminal acetylation as variable modifications, disabled “I=L”, up to three modifications per peptide, one missed cleavage, maximum charge of 5. Protein and peptide FDR were set to 1%, and proteins were filtered post-hoc for at least two unique peptides. Proteins were excluded from an experiment if they were not quantified in both labeling directions. Because FDR is unreliable for small numbers of peptides the modification site FDR was set to 10% and all methylated peptides were manually verified. […] Quantitative protein data was normalized to the mean value among proteins identified by analyzing 50 ng of digested loading control.
For UNC0638 experiments the treated vs. untreated ratio was determined by subtracting the value from 3×MBTD355N prior to dividing values from the light and heavy channels. Only proteins showing a two-fold signal to background ratio (3×MBT/3×MBTD355N) were evaluated as potential G9a/GLP substrates.

B1: PAICS (protein, UniProt P22234 2-425, looked up)
Bifunctional …: ATAEVLNIGKKLYEGKTKEVYELLDSPGKVLLQSKDQITAGNAARKNHLEGKAAISNKITSCIFQLLQEAGIKTAFTRKCGETAFIAPQCEMIPIEWVCRRIATGSFLKRNPGVKEGYKFYPPKVELFFKDDANNDPQWSEEQLIAAKFCFAGLLIGQTEVDIMSHATQAIFEILEKSWLPQNCTLVDMKIEFGVDVTTKEIVLADVIDNDSWRLWPSGDRSQQKDKQSYRDLKEVTPEGLQMVKKNFEWVAERVELLLKSESQCRVVVLMGSTSDLGHCEKIKKACGNFGIPCELRVTSAHKGPDETLRIKAEYEGDGIPTVFVAVAGRSNGLGPVMSGNTAYPVISCPPLTPDWGVQDVWSSLRLPSGLGCSTVLSPEGSAQFAAQIFGLSNHLVWSKLRASILNTWISLKQADKKIRECNL
Turning to B1, in the experiment with G9a and GLP, the “Relative to UNC0638 UNC Heavy” value is listed as −0.03 log base 2, the “Relative to UNC0638 UNC Light” value amounted to 0.05 log base 2 and the “Relative to UNC0638 Average” value is 0.01 log base 2. Also, in the experiment on 3×MBT domain of L3MBTL1, the “3xMBT/D355N UNC Heavy” value is on record as 1.12 log base 2 and the “3xMBT/D355N UNC Light” value was determined as 1.04 log base 2.

B2: XPC (protein, UniProt Q01831 2-940, looked up)
DNA repair protein …: ARKRAAGGEPRGRELRSQKSKAKSKARREEEEEDAFEDEKPPKKSLLSKVSQGKRKRGCSHPGGSADGPAKKKVAKVTVKSENLKVIKDEALSDGDDLRDFPSDLKKAHHLKRGATMNEDSNEEEEESENDWEEVEELSEPVLGDVRESTAFSRSLLPVKPVEIEIETPEQAKTRERSEKIKLEFETYLRRAMKRFNKGVHEDTHKVHLLCLLANGFYRNNICSQPDLHAIGLSIIPARFTRVLPRDVDTYYLSNLVKWFIGTFTVNAELSASEQDNLQTTLERRFAIYSARDDEELVHIFLLILRALQLLTRLVLSLQPIPLKSATAKGKKPSKERLTADPGGSSETSSQVLENHTKPKTSKGTKQEETFAKGTCRPSAKGKRNKGGRKKRSKPSSSEEDEGPGDKQEKATQRRPHGRERRVASRVSYKEESGSDEAGSGSDFELSSGEASDPSDEDSEPGPPKQRKAPAPQRTKAGSKSASRTHRGSHRKDPSLPAASSSSSSSKRGKKMCSDGEKAEKRSIAGIDQWLEVFCEQEEKWVCVDCVHGVVGQPLTCYKYATKPMTYVVGIDSDGWVRDVTQRYDPVWMTVTRKCRVDAEWWAETLRPYQSPFMDREKKEDLEFQAKHMDQPLPTAIGLYKNHPLYALKRHLLKYEAIYPETAAILGYCRGEAVYSRDCVHTLHSRDTWLKKARVVRLGEVPYKMVKGFSNRARKARLAEPQLREENDLGLFGYWQTEEYQPPVAVDGKVPRNEFGNVYLFLPSMMPIGCVQLNLPNLHRVARKLDIDCVQAITGFDFHGGYSHPVTDGYIVCEEFKDVLLTAWENEQAVIERKEKEKKEKRALGNWKLLAKGLLIRERLKRRYGPKSEAAAPHTDAGGGLSSDEEEGTSSQAEAARILAASWPQNREDEEKQKLKGGPKKTKREKKAAASHLFPFEQL
Regarding B2, in the experiment with G9a and GLP, the “Relative to UNC0638 UNC Heavy” value amounted to 0.03 log base 2, the “Relative to UNC0638 UNC Light” value was 0.03 log base 2 and the “Relative to UNC0638 Average” value is reported as 0.03 log base 2. In addition, in the experiment with 3×MBT domain of L3MBTL1, the “3xMBT/D355N UNC Heavy” value was 2.62 log base 2 and the “3xMBT/D355N UNC Light” value is given as 3.99 log base 2.

B3: MARS (protein, UniProt P56192 1-900, looked up)
Methionine--tRNA ligase, …: MRLFVSDGVPGCLPVLAAAGRARGRAEVLISTVGPEDCVVPFLTRPKVPVLQLDSGNYLFSTSAICRYFFLLSGWEQDDLTNQWLEWEATELQPALSAALYYLVVQGKKGEDVLGSVRRALTHIDHSLSRQNCPFLAGETESLADIVLWGALYPLLQDPAYLPEELSALHSWFQTLSTQEPCQRAAETVLKQQGVLALRPYLQKQPQPSPAEGRAVTNEPEEEELATLSEEEIAMAVTAWEKGLESLPPLRPQQNPVLPVAGERNVLITSALPYVNNVPHLGNIIGCVLSADVFARYSRLRQWNTLYLCGTDEYGTATETKALEEGLTPQEICDKYHIIHADIYRWFNISFDIFGRTTTPQQTKITQDIFQQLLKRGFVLQDTVEQLRCEHCARFLADRFVEGVCPFCGYEEARGDQCDKCGKLINAVELKKPQCKVCRSCPVVQSSQHLFLDLPKLEKRLEEWLGRTLPGSDWTPNAQFITRSWLRDGLKPRCITRDLKWGTPVPLEGFEDKVFYVWFDATIGYLSITANYTDQWERWWKNPEQVDLYQFMAKDNVPFHSLVFPCSALGAEDNYTLVSHLIATEYLNYEDGKFSKSRGVGVFGDMAQDTGIPADIWRFYLLYIRPEGQDSAFSWTDLLLKNNSELLNNLGNFINRAGMFVSKFFGGYVPEMVLTPDDQRLLAHVTLELQHYHQLLEKVRIRDALRSILTISRHGNQYIQVNEPWKRIKGSEADRQRAGTVTGLAVNIAALLSVMLQPYMPTVSATIQAQLQLPPPACSILLTNFLCTLPAGHQIGTVSPLFQKLENDQIESLRQRFGGGQAKTSPKPAVVETVTTAKPQQIQALMDEVTKQGNIVRELKAQKADKNEVAAEVAKLLDLKKQLAVAEGKPPEAPKGKKKK
Take B3: in the experiment with G9a and GLP, the “Relative to UNC0638 UNC Heavy” value amounted to 0.15 log base 2, the “Relative to UNC0638 UNC Light” value is listed as −0.08 log base 2 and the “Relative to UNC0638 Average” value is recorded as 0.03 log base 2. In the experiment on 3×MBT domain of L3MBTL1, the “3xMBT/D355N UNC Heavy” value is reported as 1.87 log base 2 and the “3xMBT/D355N UNC Light” value turned out to be 1.56 log base 2.
